Experimental data published in US20170073395A1 (Pfizer, published 2017).

Key:
Experiment in all cases: Biacore specificity assay: IgG immobilised (about 300 RU), antigen injected at 500 nM
hCD33 = biological target: T1, hCD33 (human, UniProt P20138 18-259, limits assumed)
T1 construct: Non-target panel protein
Experimental: (§1) Biacore specificity analyses were performed using the T-200 biosensor, series S CM5 chips, an amine-coupling kit, 10 mM sodium acetate immobilization buffer at pH 5.0, 10× HBS-P running buffer and NaOH for regeneration (GE Healthcare). A predefined ligand (IgG) immobilization program was set up to immobilize approximately 300 Response Units (RU) on the flow cell for each IgG to be tested. For Anti-RAGE and anti-A33, a panel of fully-purified recombinant target and non-target antigens were diluted in HBS-P running buffer to a final concentration of 500 nM. Four groups of antigens were examined, including: cell membrane proteins (mTRKB, hTRKB, mEGFR, hEGFR, hFceR1, hIL-21R, mICAM1, mICAM2, hICAM1, hCD33, hLAMP-1, hLOX-1, and), soluble signaling molecules (mTNFa, hVEGF, hCXCL13) and albumins (BSA, HSA and MSA). These proteins were injected at 50 μl/min for 3 min, followed by a 5 sec pulse of 20 mM NaOH for regeneration of the chip surface. For pTau, a series of pTau-derived phosphorylated and non-phosphorylated peptides were flowed, as in Shih et al.³. All sensorgrams were analyzed using the Biacore T-200 evaluation software.

mTNFa = biological target: T2, mTNFa (mouse, UniProt P06804 80-235)
T2 construct: Non-target panel protein
T2 sequence (looked up): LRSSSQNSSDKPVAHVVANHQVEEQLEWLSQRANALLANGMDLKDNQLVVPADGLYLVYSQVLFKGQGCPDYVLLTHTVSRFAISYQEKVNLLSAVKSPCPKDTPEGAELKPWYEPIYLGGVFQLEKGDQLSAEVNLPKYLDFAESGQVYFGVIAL
Experimental: as §1

hLAMP-1 = biological target: T3, hLAMP-1 (human, UniProt P11279 29-382, limits assumed)
T3 construct: Non-target panel protein
T3 sequence (looked up): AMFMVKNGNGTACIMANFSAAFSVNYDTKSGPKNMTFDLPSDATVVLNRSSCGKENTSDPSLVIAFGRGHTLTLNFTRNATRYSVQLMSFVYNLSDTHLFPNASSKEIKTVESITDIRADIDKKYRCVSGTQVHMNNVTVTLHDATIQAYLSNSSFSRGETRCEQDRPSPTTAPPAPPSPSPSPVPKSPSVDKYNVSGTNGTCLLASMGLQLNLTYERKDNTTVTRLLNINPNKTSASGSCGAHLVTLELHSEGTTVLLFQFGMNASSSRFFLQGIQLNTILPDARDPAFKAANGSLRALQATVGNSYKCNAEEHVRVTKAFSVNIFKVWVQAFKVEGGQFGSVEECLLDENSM
Experimental: as §1

mICAM2 = biological target: T4, mICAM2 (mouse, UniProt P35330 23-222, limits assumed)
T4 construct: Non-target panel protein
T4 sequence (looked up): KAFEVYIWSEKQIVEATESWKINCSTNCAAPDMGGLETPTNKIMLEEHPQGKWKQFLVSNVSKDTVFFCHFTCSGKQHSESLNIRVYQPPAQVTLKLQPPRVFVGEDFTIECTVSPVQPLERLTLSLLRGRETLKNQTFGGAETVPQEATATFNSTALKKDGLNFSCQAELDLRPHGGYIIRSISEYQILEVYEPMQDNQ
Experimental: as §1

mICAM1 = biological target: T5, mICAM1 (mouse, UniProt P13597 28-485, limits assumed)
T5 construct: Non-target panel protein
T5 sequence (P13597 28-485 limits assumed): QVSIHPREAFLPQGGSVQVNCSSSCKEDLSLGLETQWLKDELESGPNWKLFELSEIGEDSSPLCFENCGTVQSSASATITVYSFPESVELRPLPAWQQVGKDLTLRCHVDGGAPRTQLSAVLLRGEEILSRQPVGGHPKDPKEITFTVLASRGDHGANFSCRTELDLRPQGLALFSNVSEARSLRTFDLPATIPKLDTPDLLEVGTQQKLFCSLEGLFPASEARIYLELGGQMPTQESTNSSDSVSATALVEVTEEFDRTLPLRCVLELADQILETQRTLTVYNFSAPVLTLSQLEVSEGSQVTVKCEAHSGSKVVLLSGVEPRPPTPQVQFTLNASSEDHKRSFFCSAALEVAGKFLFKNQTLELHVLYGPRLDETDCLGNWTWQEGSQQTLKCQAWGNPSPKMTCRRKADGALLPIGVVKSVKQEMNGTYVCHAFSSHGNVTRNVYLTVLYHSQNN
Experimental: as §1

Measured: binding result

T1 sequence (P20138 18-259 limits assumed): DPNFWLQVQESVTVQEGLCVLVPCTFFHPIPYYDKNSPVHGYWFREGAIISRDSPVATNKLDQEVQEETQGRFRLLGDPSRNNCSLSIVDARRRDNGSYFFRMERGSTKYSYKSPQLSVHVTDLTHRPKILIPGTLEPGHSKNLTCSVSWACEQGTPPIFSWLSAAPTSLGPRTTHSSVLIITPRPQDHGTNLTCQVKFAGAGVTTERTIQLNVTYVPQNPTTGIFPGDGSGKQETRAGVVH

B1: C7-ABS-RAGE IgG (human IgG1) (antibody, V domains shown)
VH: EVQLVESGGGLVQPGGSLRLSCAASGFTFSSYWMSWVRQAPGKGLEWVASIDQDGSNKYYPDSVKGRFTISRDNAKNSLYLQMNSLRAEDTAVYYCARGGDITTGLDYWGQGTLVTVSS
VL: DIQMTQSPSSLSASVGDRVTITCRASQSIGSYLNWYQQKPGKAPKLLIYRASSLASGVPSRFSGSGSGTDFTLTISSLQPEDFATYYCLEFDEHPLTFGGGTKVEIK
notes: Human IgG1 format
no binding (tested: 500 nM): hCD33 | mTNFa | hLAMP-1 | mICAM2 | mICAM1
